The text below walks through data of patent US7101845 (JOSLIN DIABETES CENTER, dated 2006).

Positions of bridges follow the written chain, without caps; N, C: chain ends.

The experiment deals with MCH receptor (MCHR1) (mouse, UniProt Q8JZL2 1-353). Description: cell-based or functional assay.
MCH receptor (MCHR1), sequence (Q8JZL2 whole entry): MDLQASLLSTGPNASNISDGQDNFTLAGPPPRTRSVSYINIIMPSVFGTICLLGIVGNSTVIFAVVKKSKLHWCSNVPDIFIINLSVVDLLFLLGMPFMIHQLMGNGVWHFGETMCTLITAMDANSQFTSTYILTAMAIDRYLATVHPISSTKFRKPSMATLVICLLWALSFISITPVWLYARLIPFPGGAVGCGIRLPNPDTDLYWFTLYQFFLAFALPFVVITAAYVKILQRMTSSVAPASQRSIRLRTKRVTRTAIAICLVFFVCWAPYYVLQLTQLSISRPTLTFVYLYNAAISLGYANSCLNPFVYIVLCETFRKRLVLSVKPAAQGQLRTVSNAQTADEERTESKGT

Take H-DFDMLRCMLGRVYRPCWQV-OH (disulfide 7-16 (inferred)) [Melanocyte concentrating hormone (MCH)]: the “insulin secretion from islets of MCH over expressing mice” value is 4 fold and the “insulin secretion from overnight cultured islets of C57B1/6J mice, 100 nM MCH, 30 min, 11.1 mM glucose” value turned out to be 2.4 fold.
